Results taken from the supplement of paper PMC10567573.
± gives the standard deviation.

Experiment: protein stability index of a GFP-peptide fusion (GPS, HEK-293T) (PSI 1-6); higher = more stable
Details: c terminus: a fixed tail appended
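Also: 24-mer peptide tiles fused after GFP, lentivirally expressed, FACS-sorted into six equal bins by GFP/DsRed ratio, decoded by Illumina sequencing, PSI is the read-weighted mean bin number.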

Row | Sequence | protein stability index (treatment: DMSO) | protein stability index (treatment: MLN4924 1 uM, 8 h)
1 | GPLGDCLRDWEDLQQDFQNIQETH [TMEM120A] | 4.63 ± 0.31 | 4.41 ± 0.32
2 | TKHIHITQATETTTTRHKRTANPS [CLINT1] | 4.6 ± 0.19 | 4.77 ± 0.13
3 | EEKPQENKTWREQYLRLPDAPEQR [ELOA2] | 5.18 ± 0.28 | 4.88 ± 0.11
4 | EAPDSLNGPLGPSEASIASNLQAM [SMG5] | 4.99 ± 0.21 | 4.91 ± 0.25
5 | FDPAEKYKMDHRRRGIALIFNHER [CASP6] | 2.89 ± 0.2 | 3.19 ± 0.39
6 | SLSELLSQLDSGVSQAVEGPEELS [RIPK4] | 4.27 ± 0.29 | 4.1 ± 0.4
7 | AAPPPPATPIVPVVPPTPPVVKKK [BRD3] | 5.51 ± 0.21 | 5.25 ± 0.48
8 | VRDQGPSIPLTPGDTPIRKKEELL [FBF1] | 5.26 ± 0.21 | 5.33 ± 0.12
9 | QGQPAMEGHCVIQVDVGDVNDNAP [PCDHGC5] | 4.97 ± 0.5 | 4.78 ± 0.075
10 | TPEKKAEEERDEEEDKRRKGEEVT [EPB41L3] | 5.74 ± 0.29 | 5.75 ± 0.27
11 | CRIQDLCAMEDHNCEQLCVNVPGS [MATN2] | 3.01 ± 0.44 | 2.77 ± 0.32
12 | PPWKEAFRQRCLERMRNSRDRLLN [RPAIN] | 2.66 ± 0.18 | 2.75 ± 0.33
13 | DDAVRVLREIVHKPGPITLTVAKC [DVL3] | 2.87 ± 0.16 | 2.9 ± 0.17
14 | CCLVKMESLEPDAQVLMLGQILEL [FANCE] | 3.04 ± 0.15 | 2.83 ± 0.48
15 | MENNHTVAITILQDDHDHKVQELM [MTUS2] | 4.42 ± 0.26 | 4.34 ± 0.098
16 | YKDFLWFFSKRFKSAAMLAVFAVS [SOAT1] | 2.25 ± 0.49 | 2.4 ± 0.53
17 | RSDLYSSGRDRVGRQERGLPPSME [RBMX] | 4.41 ± 0.091 | 4.51 ± 0.23
18 | RTVAVGDIVWGKIHGFPWWPARVL [PWWP2B] | 2.02 ± 0.47 | 2.17 ± 0.23
19 | ERDFPCPVCRKTSRYRSLRPNRQL [TRIM39] | 2.93 ± 0.46 | 3.23 ± 0.45
20 | WTVWSGNRASLYSFPEPEAAQPMT [PRAME] | 2.45 ± 0.034 | 2.57 ± 0.25
21 | LFDLMRRMLEFDPAQRITLAEALL [CLK3] | 2.05 ± 0.6 | 2.19 ± 0.11
22 | ERIVVAGNNEDVSFSRPADLDLIQ [MFF] | 4.96 ± 0.075 | 4.21 ± 0.32
23 | TSIGDGPLSSDIQVITQTGVPGQP [PTPRD] | 4.6 ± 0.22 | 4.76 ± 0.19

Row | Sequence | protein stability index (treatment: DMSO) | protein stability index (treatment: MLN4924 1 uM, 8 h)
24 | SLEHVQLFDLMRRMLEFDPAQRIT [CLK3] | 2.31 ± 0.29 | 2.07 ± 0.36
25 | ENSGILQGKLIKRQRLAKNDRGDH [EFHC1] | 3.85 ± 0.32 | 4.37 ± 0.11
26 | YQLELQCCIDWTHVTDPLIGCKKP [SMG5] | 2.38 ± 0.45 | 2.1 ± 0.3
27 | LAAAPEGLEDAGLDPHFVPTELWP [TEX19] | 4.06 ± 0.11 | 4.19 ± 0.24
28 | FHRLDEPPHICWDETHFGKMGSYY [POMT2] | 2.42 ± 0.51 | 2.36 ± 0.4
29 | RKLFGQESGPSAEKYSVATQLFIG [FUNDC2] | 2.61 ± 0.18 | 2.47 ± 0.26
30 | RSHEGETAYIRVKVDGPRSPSYGR [SRSF1] | 3.83 ± 0.19 | 3.73 ± 0.32
31 | KYLKLQDTCRTQLVWLVRELVKSG [INTS3] | 2.94 ± 0.82 | 2.6 ± 0.83
32 | VENNRRDVEAWFNTQTEELNQQVV [KRT36] | 4.67 ± 0.27 | 4.65 ± 0.14
33 | EDDDEEDTDKLLNSASDPSLKDGL [PSD2] | 5.51 ± 0.3 | 5.46 ± 0.33
34 | EMDWAQMACHRCLVYLGDLSRYQN [SMG5] | 2.36 ± 0.4 | 2.17 ± 0.18
35 | CEMDWSDKMEAYNIDETCGRHHSQ [TEKT4] | 4.53 ± 0.15 | 4.56 ± 0.13
36 | MLRQLLLAALCLAGPPAPARACQL [CCDC3] | 3.47 ± 0.045 | 2.76 ± 1.1
37 | QAYAHYLLATFPRRALAPPSAGFR [ANKRD9] | 2.31 ± 0.22 | 2.37 ± 0.23
38 | YTFVPWLLSFKRGSALEEKENKIL [TNFSF13B] | 2.51 ± 0.59 | 2.22 ± 0.3
39 | QKGIPPSLRGRAWQYLSGGKVKLQ [TBC1D10A] | 2.8 ± 0.13 | 3 ± 0.21
40 | VPTPKSHLQLLGAVCMFLASKLKE [CCND2] | 2.11 ± 0.28 | 1.92 ± 0.39
41 | QCRERREHPNLVRDHVETELLKEA [TEKT4] | 4.77 ± 0.19 | 4.97 ± 0.23
42 | SLSHINAYACLVCGKYFQGRGLKS [USP39] | 2.14 ± 0.39 | 2.07 ± 0.42
43 | EDLLQQMLERRYTPYPNLYPDQSP [CLCN6] | 3.28 ± 0.24 | 3.29 ± 0.15
44 | DRNTKRDVTLEASRESSKPRAVLK [PPP2R2C] | 4.62 ± 0.23 | 4.79 ± 0.17
45 | RLQELCHGWLRPEMRTKEQILELL [ZNF263] | 2.58 ± 0.11 | 2.9 ± 0.12
46 | QKELQDVGQSLRIKEQEVCKLQEQ [SASS6] | 4.88 ± 0.25 | 5.03 ± 0.36

Row | Sequence | protein stability index (treatment: DMSO) | protein stability index (treatment: MLN4924 1 uM, 8 h)
47 | EAEQSLRNLEDIHMSLEKDIAAMT [TEKT4] | 4.58 ± 0.25 | 4.8 ± 0.14
48 | ENRELYIKTTLRELLVYIVFLVDI [PKD2L1] | 2.58 ± 0.87 | 2.57 ± 0.82
49 | RSSHLVIHERTHERERLYPFSECG [ZNF263] | 2.93 ± 0.21 | 3.25 ± 0.3
50 | YLSNARPDNWFCYPCIPNHELVWA [ZMYND11] | 2.67 ± 0.34 | 2.23 ± 0.49
51 | GKDEIEAAVKAAREAFPSWSSRSP [ALDH8A1] | 4.5 ± 0.32 | 4.29 ± 0.23
52 | QLVRYSADGLLQLGPLGSTAFLPD [GALNT9] | 2.33 ± 0.27 | 2.67 ± 0.3
53 | MQPTLLLSLLGAVGLAAVNSMPVD [CHGB] | 2.85 ± 0.68 | 2.94 ± 0.69
54 | EEMAVVPQGLFRGGKSGELEQEEE [CHGA] | 5.63 ± 0.27 | 5.62 ± 0.18
55 | GFVDLLDGENLKNEEETPSCMASL [CDC25A] | 4.64 ± 0.25 | 4.62 ± 0.13
56 | GPYEGGGPVAGLDDSGGPTPSSYA [ZBTB22] | 4.95 ± 0.24 | 4.97 ± 0.17
57 | VVLDRHGVYGLQRNLLVENIIDIY [TRIM55] | 2.44 ± 0.8 | 2.81 ± 0.099
58 | EVGDPAPLGAGNLGPELIKESNAN [DPCD] | 5.31 ± 0.31 | 5.28 ± 0.1
59 | KPARKRRRRSRKKPSGALGSESYK [EHMT1] | 5.11 ± 0.27 | 5.28 ± 0.14
60 | FGAVNLSSPSNMLPVRPQTNALIG [CLINT1] | 3.23 ± 0.12 | 3.26 ± 0.41
61 | KAEGGEEDSLGCLTADTKEVTASQ [IRX6] | 5.49 ± 0.22 | 5.48 ± 0.24
62 | SQPIDLSACTVALHIFQLNEDGPS [TRIP13] | 2.56 ± 0.2 | 2.51 ± 0.28
63 | LLLGAGESGKSTIVKQMKIIHEAG [GNAI1] | 2.51 ± 0.47 | 2.54 ± 0.65
64 | LHVAARYGHELLINTLITSGADTA [ANKRD44] | 2.52 ± 0.28 | 2.44 ± 0.72
65 | ELSKDAQASAAPAAPLPERNSLSA [SLC29A1] | 5.15 ± 0.12 | 5.05 ± 0.27
66 | FSRVCRLHRGQLSLFCLEDKELLC [TRIM35] | 2.22 ± 0.56 | 2.19 ± 0.18
67 | AERYKLERLAEAEKSQLIMQAEAE [FLOT1] | 5.29 ± 0.25 | 5 ± 0.28
68 | RNQVVSSTNGELNVDDPTGAHSNA [CSNK1G1] | 5.25 ± 0.12 | 5.22 ± 0.18
69 | ISLALFVLPKPKVISCLEQGEEPW [ZNF75A] | 3.21 ± 0.49 | 2.9 ± 0.56

Row | Sequence | protein stability index (treatment: DMSO) | protein stability index (treatment: MLN4924 1 uM, 8 h)
70 | TVASEAKIQLSDSEAKSHSSADDA [FAN1] | 5.46 ± 0.28 | 5.38 ± 0.27
71 | VPGLLLSYLMLVTVMMWPLAVYHR [RETREG3] | 3.33 ± 0.44 | 3 ± 0.31
72 | TFQSSVLRVGIPENAPIGTLLLRL [PCDHGC5] | 2.23 ± 0.3 | 2.16 ± 0.12
73 | AWLPQAKVPFSQEIKDLILPKISD [PI4K2A] | 2.72 ± 0.059 | 2.78 ± 0.18
74 | RKGCLRFQLPERGSRLCLYEDGTE [DFFB] | 3.34 ± 0.39 | 3.47 ± 0.21
75 | TCSADHLIILWKNGERESGLRSLR [WDR41] | 2.09 ± 0.25 | 2.28 ± 0.17
76 | QELASLLRTYLARLPWAGQLTKEL [PBXIP1] | 2.95 ± 0.59 | 2.72 ± 0.7
77 | SMAKEVIAKELSKTYQETPEIDMF [ZBED1] | 4.11 ± 0.21 | 4.05 ± 0.18
78 | SVLLSWEIPENYNSAMPFKILYDD [PTPRD] | 1.88 ± 0.26 | 2.29 ± 0.22
79 | DIWSKSNYQVFQKVTDHATTALLH [MED27] | 2.44 ± 0.27 | 2.34 ± 0.31
80 | FLLVQRFGELMRKLWNPRNFKAHV [USP39] | 2.47 ± 0.51 | 2.54 ± 0.7
81 | VLKKQDAFYKEQLARLEERSSEFY [CHCHD3] | 3.45 ± 0.34 | 3.48 ± 0.12
82 | KDIAGEFKEQLQALIPYVLNPSKL [ATL3] | 2.19 ± 0.11 | 2.32 ± 0.18
83 | LMDIVPADDHRYKFADNKWSVTGK [TBX5] | 3.63 ± 0.29 | 3.54 ± 0.15
84 | PGVLKVLWLTASQPCSIVDVEFLP [LPCAT4] | 3.08 ± 0.27 | 2.87 ± 0.99
85 | DECEKAYFYMSCLVKHKRIHSREK [ZNF649] | 2.69 ± 0.14 | 2.9 ± 0.35
86 | GVILHSLKTQSLEGKRKAFYTCAS [OR4A15] | 2.48 ± 0.27 | 2.19 ± 0.27
87 | PALSQLVNLYLGRSHFLWKEPATM [TCF25] | 3.25 ± 0.75 | 3.02 ± 0.9
88 | SLSRNNSFRRNVGRVLLANSTQAD [FBXO34] | 3.15 ± 0.24 | 3.21 ± 0.3
89 | SVIEEDLEEFQLALKHYVESASSQ [NECAB1] | 3.78 ± 0.58 | 3.84 ± 0.077
